The results in this text go back to paper PMC5127646.

pKd: −log10 of the molar value.

What is called pKd is the Kd on a negative log10 scale, so that one unit is a factor of ten. Read a low pKd as a high Kd.

The target of the assay is RBM5 OCRE domain (residues 451-511), wild type (human) (UniProt P52756). As to the kind of experiment: ITC; Sm tail constructs with wild type OCRE; SmN constructs (1 mM) titrated into OCRE (100 μM); ITC200, 24°C, 20 mM sodium phosphate pH 6.5, 50 mM NaCl; duplicates. (In ITC the heat of successive injections is recorded.)
RBM5 OCRE domain (residues 451-511), wild type (human), sequence (P52756 other isoform, or with tags, fused parts or gaps): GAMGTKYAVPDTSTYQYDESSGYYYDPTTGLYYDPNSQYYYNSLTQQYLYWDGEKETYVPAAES
Regarding “SmB 167-231 4P→4A (from UniProt P14678-2 167-231) (domain or fragment)”, the pKd is 4.70. For “SmB 167-231 R1/R2→E1/E2 (from UniProt P14678-2 167-231) (domain or fragment)”, the pKd was 3.80. “SmN 167-240 R1→E1 (from UniProt P63162 167-240) (domain or fragment)” showed a pKd of 4.18. As for “SmN 167-240 R2→E2 (from UniProt P63162 167-240) (domain or fragment)”, the figure is 4.13; as for “SmN 167-240 R1/R2→E1/E2 (from UniProt P63162 167-240) (domain or fragment)”, 3.83.
